{"source": "paper PMC6983136", "tested_on": "NC(=O)N[C@H]1NC(=O)NC1=O", "experiment": "purified protein", "settings": "free enzyme, 70 nM monomer, 20 mM potassium phosphate, pH 7.4, 37 °C, racemic allantoin added, table states (S)-allantoin, unclear whether concentration counts racemate or S form"}
{"substance": "puuE (allantoinase from Pseudomonas fluorescens) (Pseudomonas fluorescens Pf0-1)", "values": [{"measurement": "Km", "value": "1350 ± 430", "unit": "µM"}, {"measurement": "kcat", "value": 102, "unit": "s⁻¹"}, {"measurement": "kcat/Km", "value": 75200, "unit": "M⁻¹ s⁻¹"}]}
